From the DeepSol protein solubility set

Test: soluble on expression in E. coli; label from the status in PepcDB or PDB records

| Sequence | soluble on expression in E. coli |
| --- | --- |
| MGSDKIHHHHHHENLYFQGMTLSITSNFDAGAIDVVSCERADAIRLRVRGDNRSEFAQWFYFRLTGARGERCVMTFENANDCAYPAGWRDYRAVASYDRVNWFRVPTSYDGQMLTIDHTPEFDSIHYAYFEPYSEERHSEFLGAVQQMPQASVVELGRTVEGRPMSLVVLGTPDEAGAAKKKVWIIARQHPGESMAEWFIEGLVKRLVGWGDWSGDPVARKLYDHATFYIVPNMNPDGSVHGNLRTNAAGANLNREWMEPDAERSPEVLVVRDAIHAIGCDLFFDIHGDEDLPYVFAAGSEMLPGFTEQQRVEQSAFIDSFKRASPDFQDEHGYPPGKYREDAFKLASKYIGHRFGCLSLTLEMPFKDNANLPDEHIGWNGARSASLGAAMLGAILEHVRAFA | soluble |
| MNANIMLNEDITPIGSDYDTVRGVIELLTLDYREQPSLEAIAARLGQSPTQLQKTFTRWAGLSPKAFLQAVTLDHAKRLLREEDLPLLETSIEVGMSGPGRLHDLFVTHEAMSPGEWKAKGGGLTIRYGFHASPFGLALVMITDRGLAGCAFADPGDERACFEDMAGRWPNADYVEDREATAPYAARIFEPAMWTADKPLRVVLLGTDFQVRVWKSLLKIPMGRAVTYSNIACDIGQPTASRAVGAAVGANPVSFVVPCHRAVGKSGALTGYHWGLTRKRAMLGWETGKALEHHHHHH | not soluble |
| MSKMKRRTNKPRATESANSSTKSSVLDEPTLVERKQQKKQILKFVQRTLEKMPQGLRAEFVGMRRFNDFEKMKAFKEAQEAGKNRYKDVGCLDNNRVKLEGPWPHEYIHANYVATPTNPKRFICTQAPLEKTCADFWYMCYQDKVEYIFMLCNLLEKGARKCFEYFPSKKGDVMDFEEGGQKISVKCESSVTYSFRSDAKANVTATEIVIEGPGEKTRKTTHYHWNDWPDRGVPAADMAVLELLENARPSKGPIVVHCSAGIGRTGSVVMLEYIMDQLLAGQIIDDGEKILVKIREQRNNSIQTDAQYLFVHQVILNYFRKKKLMEETGVQEAYDAFLEQYKKVVV | soluble |
| MGSDKIHHHHHHMANISTFEVGYCLHPGCMALRGAGWKVCRFPARVWMLESHGKRWLWDTGYAQHFTDATRSGLFQLYRRMTPVHFETKDALIHQLHAQGIQPADIDGLIISHFHGDHIAGLQDFPTVPFICSALGWQQTRNLRGFAALKRAFVPALIPEHFEQSLQFVENFPLTDLPAALAPFTQGYVLPGSDKEIVLVPLPGHAVGHLGAFVLTETGWVLLASDAAWSPHSYREGRGPSRLANLVMDDPKAYYQTLDQLHQLHLNGQVEIRLCHEGDL | not soluble |
| MTRIIASLSEVSAGYSALFCDLWGCLHDGKRPFAEAVEALRAFRARGGTVLLMTNAPRPKPSVVRQLESIGVPPDCYDEVTSSGDAAQYALVTGAVGRRVYHLGPQKDETFFTELSPDLQKVAATEAPIVRVPLEEAEGIVCTGLFDDLTETPEDYRATLLYAKTQGLKLLCANPDIVVDFGDKRIYCAGAIAEAYDAMGGQSLYFGKPHPPIYDLARRRLEALRPGVPADEILCVGDGIATDIRGAVAEGLDSLFITGGLAASVFGENGE | not soluble |
| MGSDKIHHHHHHADVRMPLIFGDHMVLQQDTKIAIFGWADAGETVEVVFAGQKVKTTADTDGTWRVNLKPIKTKKEGQTLTIAGKNKLVYSDVLVGDVWVASGQSNMEWGIKVRKEYADDISASEDPLLRLFFVPKNTSLEPLTDIEVPQGTSNPERAARWVLCTPEMLAKINGQGFSATAYYFARDMRAANGRPLGVIQSAWGGTRAEAWTSLSGLKQEPALAHYVAAYEKNVKDNPEILATYPQKQKEFDEAVREWDKTVGKEWNQAQKEWAIAVQAAQAAGKPAPPKPQPSVPRPPNPRKPNGGNNGPSNLFNAMISPLIPLSIKGVIWYQGEFNSGGSGKEYATLFSRMITDWREKWGIGDFPFVYVQLPNFEPVDPEPSVEGNGWRWVREGQLKALNLPNTAMAVTIDVGDPFDLHPVDKYDVGHRLALAARKLAYGEKIVGMGPLYKKMSVKGNKIILEFTNQGKKLVMGTSPYIPAGKPPHPKPTKLTGFGIAGADRKFVWADAVIEGNKVIVSSSEVAVPLAVRYGFSNSPRCNLYNEKGLPASPFRTDSWDK | not soluble |
| MEKVHYAAIDVGSNAVRLLIKCVNSEGMEEPLSKVLIMRVPIRLGEDSFTKGYIGEEKTDNMVRLMRAYYEMMQIYRVKDYRACATSAMRDASNAEAVIAQIREKTGIHIDIIDGDEEARLVSDNHIEQIISDGGNYIYLDVGGGSTELTIPAAEIFLEVADITGAKTIIAPIVGLADGIIEDLYIRHQSQPSLEHHHHHH | soluble |
| MTDTIEAKANMQTVSALPPEETERLGTEIVAALKTVFDPEIPADIYELGLIYKVEIKDDRTVDIDMTLTTPNCPAAAELPTMVENAVASVPGVGVVNVNIVWEPPWTPERMSDEARLVLNMW | not soluble |
| MSLAFPKIISVDDHTVEPPDVWRDRLPKKYQDTGPRIVRAPLKEMTFLGGKFAPVMGGPGDDGPLGDWWVYEDLHRPLTRLDTAVGYSRDEIKLEVITYEQMRPGSYDVPRRLADMDVNHVQSALCFPTFPRFCGQTFTEAKDRELGLLGVRAYNDWMVEEWCGPDAHGRLIPLTLVPLWDARLAAAEVRRNAARGVRAVAFSEIPPHLGLPSVHTDDWDPFLAACDETGTVIAMHIGSSSRMPSTSADAPPAVGSTITFANCCFSMVDWLMSGKFERFPNLRVMYAEGQIGWIPYILERADVVWEENRGWGGVADKVHRPPSELFAGHVFGCFFDDAFGLRNLDAIGIGNVLYETDYPHSDSTWPKSREVGEAQMGHLEAEVVERIVRGNAIELLGLTDDGEGHHHHHH | not soluble |
| MGSDKIHHHHHHMKEPLSLSFDEQMALFEERGMQMTSKDVEKLKVIGYYRIKQFAAPLANKKIVNENTVYDYKGIYFSDVLKRYYQDKNLRIHLLHAIEKIEVALKTWVAFILGEQYGAFGYLNFSEWCDKNRYSKFEIEKRQFFFKKDLLRATSRSCTEDIKLKKNKEKDNFPSIWLAVEVLTFGELVRLVEIMSTRNKRKLSKMFRCTDIELLSWLKCINFVRNACAHNANVIDLQLETKPVCRSDWKDYLYNVNKSNNGTPSNKLAIVIFIIKTLVTPINERYGWKNIRRNIARLVDSSDKNAHLLGFSDCASAYKVLEKSNGTTTKASLP | not soluble |
| LMVGGLLLAAASNNVQAEALQPDPAWQQGKLDNGFSWQLLATPQRPSDRIELRLIVNTGSLSENTQEVGFAHLLPRLALMSSASFTPAQLQSLWQQGIDNERPLPPAITSYDFTLYSLSLPNNRPDLLKDALAWLSDTAGNLAVSEQTVNAALNTATDPIATFPQNIQEPWWRYRLKGSSLIGHDPGQPVTQPVDVEKLKQFYQQWYTPDAMTLYVVGNVDSRSIAAQISKAFSELKGKRTAPAAVATLAPLPPEPVSLMNEQAAQDTLSLMWDTPWHPIQDSMALSRYWRSDLAREALFWHIKQVLEKNNQKNLKLGFDCRVQYQRAQCAIHLNTPVENLTANMTFVARELAALRANGLSQAEFDALMTQKNDQLSKLFATYARTDTDILMSQRLRSQQSGVVDIAPEQYQKLRQAFLSGLTLAELNRELKQQLSQDTTLVLMQPKGEPEVNVKALQEIYNGIMAPQTVAEEEVAPAEAVETAPVMPTTAQ | soluble |
| MSLNLQSKKRAWIVGKEHYDLGNDLFSRMLDPYMQYSCAYWKDADTLEAAQQAKLKLICEKLQLQPGMRVLDIGCGWGGLSQYMATHYGVSVVGVTISAEQQKMAQTRCEGLDVSILLEDYRDLNDQFDRIVSVGMFEHVGPKNYNTYFEVVDRNLKPDGLFLLHTIGSKKTDHNVDPWINKYIFPNGCLPSVRQIAEASESHFVMEDWHNFGADYDTTLMAWHERFINAWPEIAGNYNERFKRMFSYYLNACAGAFRARDIQLWQVVFTRGVENGLRVPREGHHHHHH | not soluble |
| MGHNMMTTQKWYEHITNVIIGNTANFNSGCPESIDYVDEKKGVPLAAMKYILMYTEAAASHAYLFEHDLKKFKQYAYVAGKLGILQSVDDEDPEPFFFPCDMLNIQDPMFLMLMSDSPQLREFLVRNIDNIANDTEAFVNRYDLNRHMIYNTLLMVEGKQLDRLKQRSEKVLAHPTPSKWLQKRLYDYRFFLAFAEQDAEAMKAALEPLFDKKTARMAAKETLSYFDFYLQPQIVTYAKIASMHGFDLGIDHEIAPRDLTVYDPLPADEYQDIFDFMKQYDLSYPYEYLQDWIDYYTFKTDKLVFGNAKRE | not soluble |
| VDKIYVIEENDPFIEEQIKAYGIDCIGKDVIPPYGEMTPDVLRKAIFGKTNDTIEYKSELVTPRPPSFCAGCPHRGFFYELGKRKNLIVGGDIGCYTLGFAPPYNGIDYVVCMGSAFGTAHGAQKVLNMKDDNEKRLVGVLGDSTFFHTGINGLLDVVYNRGNSISVILDNRITGMTGHQENPGSGYTLQGAKTKEVDIEGLVKACGIEHVRVINPNNLKEVNEALDWALAIEDEPSVIIT | not soluble |
| CSLIPDYQRPEAPVAAAYPQGQAYGQNTGAAAVPAADIGWREFFRDPQLQQLIGVALENNRDLRVAALNVEAFRAQYRIQRADLFPRIGVDGSGTRQRLPGDLSTTGSPAISSQYGVTLGTTAWELDLFGRLRSLRDQALEQYLATEQAQRSAQTTLVASVATAYLTLKADQAQLQLTKDTLGTYQKSFDLTQRSYDVGVASALDLRQAQTAVEGARATLAQYTRLVAQDQNALVLLLGSGIPANLPQGLGLDQTLLTEVPAGLPSDLLQRRPDILEAEHQLMAANASIGAARAAFFPSISLTANAGTMSRQLSGLFDAGSGSWLFQPSINLPIFTAGSLRASLDYAKIQKDINVAQYEKAIQTAFQEVADGLAARGTFTEQLQAQRDLVKASDEYYQLADKRYRTGVDNYLTLLDAQRSLFTAQQQLITDRLNQLTSEVNLYKALGGGWNQQTVTQQQTAKKEDPQAHHHHHH | soluble |
| MKIADGVYVHFIPTQKYKTNRIVFRMTGSLNKQTIAKRALVSQMLATANQTYPTVQSFKERLASLYGTQLSTKVSTKGLTHSVDIELTYLKDFFIPMNTSLFWEVLGFLMDCLYNPLSIVAQYQNKVFDIEKQNLMTYLDVDTENNYYYSEVQGRELYFVNEALKVPKYGRVELVEAETSFTAYQEFQSMLTKDRIDIFMVGEFDDYQVLRGLHRFPLEGRQVDLQFSYNQSYSKVVKEKIETRQTSQSILQLGYQFPCQYGDKDYFALIVFNGMLGEFAHSALFTKIREKEGLAYSIGSQFDAFTGLLEIYAGIEKSNRNQAMRGIIRELNHIKLGRFSSSLFNQTKKIIRMNALLSEDHALTLVEQHFNKVIFGDKKISLEDWLDKIEKVTKKDVCRIARQVKLQSLFFLEGVS | not soluble |
| QMFWPLQPVQLSLANVFLALANYLDAKAKLFHPVTNLAPQPMRIEAARLNAATVTALNACKATLLTRSKRGHVDGPSDRFLNIYFIAQDIHERVSSSHYRYQDLATEFERSDVLFRFKYLLETQAQACRDIAQAIQLGNEYTHTDESILALAELQNSLAYLEEQQQGHWKRLLMQLTYLFNNLATVEKQLNNINNPDAERLEEDTLADTNPHTLKAMWQRISANLHKDSMLFRH | not soluble |
| MDYDVLILGGGIIGCSIAYELSKYSLNVSLIEKEYEIGDDTSIVNSDLVYDGIESKYNFNYGLETEGNQEIEKICSVLSVPFKKVNAIVCSRDKENEDTINKIYSRGIKRGIKDASLANIESAIAKSIILKDINNKGIELKDIGIVCADDLALAYGEVAFDNGVNFRLNEKVIEIKKISKGFNVTTSKNKFTCKIVINTIPDASSPILVDGKEDKGSKKNISNLIYFVLDRKVKASLKHAIAVLSNKGDSTYIFRDFEDNIIVKIVTKDDCLYDEALDKLKAVIGDIEEEDIIYFYKSRFINDKIVITNKLDSDGYIKVQCKSYAISTVTPSISRNVGEAIVKNLNCKLKKEFYGRRREIYRFRDMSNKQRQKLIATNPDYGKIICRCNQVTEGEIIDSIRRPLGARTLNGIKRRTGVFNGECLGTCCIDKIVKILAKETNKSLTEVIKKTENSSIVKGRIKEFDEMLEHHHHHH | not soluble |
| KSIYLQSPYFIPDQSYINALKMAANSGVEVNLMIPCKPDHPFVYWATFSNAADLLDSGVNIYTYQNGFIHSKILMIDDEISSIGSANMDFRSFELNFEVNAFIYDEDIAKQLRQAFEKDIEQSKLLTKEVYDKR | not soluble |
